From paper PMC10193008, “Discovery of an inhibitor of DNA-driven inflammation that preferentially targets the AIM2 inflammasome”

Molecular target: T1, AIM2-GST (rhAIM2) (human, UniProt O14862 1-343)
T1 sequence: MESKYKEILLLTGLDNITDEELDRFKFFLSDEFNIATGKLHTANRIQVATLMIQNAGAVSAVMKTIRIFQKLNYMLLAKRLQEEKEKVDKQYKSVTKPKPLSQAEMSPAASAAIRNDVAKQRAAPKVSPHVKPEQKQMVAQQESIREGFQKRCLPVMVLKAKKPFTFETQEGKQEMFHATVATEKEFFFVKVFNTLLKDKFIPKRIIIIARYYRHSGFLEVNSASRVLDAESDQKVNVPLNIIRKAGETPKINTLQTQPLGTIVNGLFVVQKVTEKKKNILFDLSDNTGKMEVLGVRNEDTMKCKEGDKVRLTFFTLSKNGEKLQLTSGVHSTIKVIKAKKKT
Experiment: EMSA; no inhibitor
Conditions: protein: commercial; tags: GST; label: none (SYBR Safe stain after electrophoresis); blunt

B1: VACV72 dsDNA (dsDNA)
DNA 1: ATCCATCAGAAAGAGGTTTAATATTTTTGTGAGACCATCGAAGAGAGAAAGAGATAAAACTTTTTTACGACT
DNA 2: AGTCGTAAAAAAGTTTTATCTCTTTCTCTCTTCGATGGTCTCACAAAAATATTAAACCTCTTTCTGATGGAT
binding result: binds
